Data reported in patent US7250505 (FRED HUTCHINSON CANCER RESEARCH CENTER, dated 2007).
Where a chain is given by its changes, count along the chain named. Non-standard residues stand in square brackets, D forms with d. No end group written: not given here. pY = N[C@@H](Cc1ccc(OP(=O)(O)O)cc1)C(=O)O

Key:
activated Src (Src527F) = target: T1, activated Src (Src527F) (UniProt P00523 1-533); test: co-expression with Src527F in 293T cells, immunoprecipitation and immunoblot
T1 construct: the old residue (Tyr) is from general knowledge

[1] = target: LexA-Src(295R) fusion protein (UniProt P0A7C2 1-202; P00523 1-533); test: yeast two-hybrid, beta-galactosidase filter assay
[2] = target: T2, APP protein (endogenous, full-length) (UniProt P12023 18-770, limits assumed); test: GST pull-down from P19 cell extracts, Western blot
T2 construct: P19 is a mouse line by general knowledge; also called endogenous, full-length APP; amyloid precursor protein
Description: To test whether mDab1 would bind to the cytoplasmic tail of the APP protein, extracts of P19 cells were incubated with GST fusion proteins and subjected to immunoblot analysis as described above. […] Bound proteins were detected by SDS-PAGE followed by Western blotting.

[3] = target: T3, GST-mDab1 PTB domain fusion protein (mouse, UniProt O75553 29-197 (human entry)); test: cellulose peptide array, radiolabeled GST-PTB
T3 construct: also called GST-PTB; not shown: glutathione S-transferase encoded by the pGEX-2T vector
T3 sequence: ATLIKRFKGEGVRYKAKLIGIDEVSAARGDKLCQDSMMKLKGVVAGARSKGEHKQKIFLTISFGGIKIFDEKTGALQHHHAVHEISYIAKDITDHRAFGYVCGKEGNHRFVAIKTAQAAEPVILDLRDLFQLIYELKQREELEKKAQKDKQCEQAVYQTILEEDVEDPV

B1: mDab198/200F (mutant mDab555 with Phe in place of Tyr 198 and Tyr 200) (other)
chain: MSTETELQVAVKTSAKKDSRKKGQDRSEATLIKRFKGEGVRYKAKLIGIDEVSAARGDKLCQDSMMKLKGVVAGARSKGEHKQKIFLTISFGGIKIFDEKTGALQHHHAVHEISYIAKDITDHRAFGYVCGKEGNHRFVAIKTAQAAEPVILDLRDLFQLIYELKQREELEKKAQKDKQCEQAVYQTILEEDVEDPVFQFIVFEAGHEPIRDPETEENIYQVPTSQKKEGVYDVPKSQPVSAVTQLELFGDMSTPPDITSPPTPATPGDAFLPSSSQTLPGSADVFGSMSFGTAAVPSGYVAMGAVLPSFWGQQPLVQQQIAMGAQPPVAQVIPGAQPIAWGQPGLFPATQQAWPTVAGQFPPAAFMPTQTVMPLAAAMFQGPLTPLATVPGTNDSARSSPQSDKPRQKMGKESFKDFQMVQPPPVPSRKPDQPSLTCTSEAFSSYFNKVGVAQDTDDCDDFDISQLNLTPVTSTTPSTNSPPTPAPRQSSPSKSSASHVSDPTADDIFEEGFESPSKSEEQEAPDGSQASSTSDPFGEPSGEPSGDNISPQDGS
notes: Co-expressed with Src527F in 293T cells
- fold reduction of the in vivo association against mDab555 (activated Src (Src527F)): ~2 fold

B2: mDab1 clone B3 fused to the VP16 transactivation domain (other)
chain: HHHAVHEISYIAKDITDHRAFGYVCGKEGNHRFVAIKTAQAAEPVILDLRDLFQLIYELKQREELEKKAQKDKQCEQAVYQTILEEDVEDPVYQYIVFEAGHEPIRDPETEENIYQVPTSQKKEGVYDVPKSQPVSAVTQLELFGDMSTPPDITSPPTPATPGDAFLPS
- binding result [1]: no binding

B3: GST-mDab1 56E PTB domain fusion protein (other)
chain: T3 sequence with R28E
notes: also called mDab56E-GST; mutant mDab1 PTB; not shown: GST of pGEX-2T and its linker
- binding result [2]: no binding

B4: TrkA peptide with the motif Ile Ile Glu Asn Pro Gln Tyr, phosphorylated (peptide)
peptide: IIENPQ[pY]
modifications: also: on cellulose array
notes: NPXpY peptide on a cellulose array
- binding result [3]: no binding

B5: TrkA peptide with the motif Ile Ile Glu Asn Pro Gln Tyr, not phosphorylated (peptide)
peptide: IIENPQY
notes: 15 to 17 residue peptide on a cellulose array; only the motif is printed; also called NGF receptor (TrkA) peptide
- binding result [3]: no binding
